Experimental data reported in patent US20200297760A1, “COMPOSITIONS AND METHODS FOR REDUCING IMMUNE RESPONSES AGAINST CHIMERIC ANTIGEN RECEPTORS” (Juno Therapeutics, Inc., priority 2015, published 2020).

Molecular target: HLA-A*02:01 (human)
Experiment: REVEAL MHC-peptide binding assay, recombinant HLA
Details: remark: other sources report otherwise

Row | Binder | In Vitro Score (% of positive control peptide)
1 | AFIIFWVSR | 4.5
2 | WVKRGSKKL | 3
3 | IFWVARGRK | 1
4 | IIFWVSRGR | 2.6
5 | IIFWVKRGS | 13.6
6 | IFWVHRGRK | 7.1
7 | IFWVKRGLK | 2.4
8 | IFWVSRGRK | 1.3
9 | IIFWVHRGR | 4.7
10 | IFWVQRGRK | 6.1
11 | FIIFWVHRG | 37.3
12 | AFIIFWVAR | 2.2
13 | IIFWVQRGR | 5.8
14 | IIFWVKRGR | 1.7
15 | IIFWVKRGL | 82.2
16 | AFIIFWVHR | 0.3
17 | IFWVKRGSK | 2.4

Molecular target: HLA-A*03:01 (human)
Experiment: REVEAL MHC-peptide binding assay, recombinant HLA
Details: remark: other sources report otherwise

Row | Binder | In Vitro Score (% of positive control peptide)
18 | AFIIFWVSR | 0.3
19 | WVKRGSKKL | 1.9
20 | IFWVARGRK | 53.7
21 | IIFWVSRGR | 25.3
22 | IIFWVKRGS | 16.2
23 | IFWVHRGRK | 37.8
24 | IFWVKRGLK | 26.9
25 | IFWVSRGRK | 39.2
26 | IIFWVHRGR | 30.1
27 | IFWVQRGRK | 36.7
28 | FIIFWVHRG | 0
29 | AFIIFWVAR | 0.5
30 | IIFWVQRGR | 18
31 | IIFWVKRGR | 24.3
32 | IIFWVKRGL | 15.9
33 | AFIIFWVHR | 0.3
34 | IFWVKRGSK | 10.4

Molecular target: HLA-A*11:01 (recombinant MHC class I molecule) (human)
Experiment: REVEAL MHC-peptide binding assay, stabilisation of ternary complex with recombinant MHC
Details: remark: other sources report otherwise

Row | Binder | In Vitro Score (% of positive control peptide)
35 | VAFIIFWVR [… synthetic peptide K28R (SEQ ID NO: 100)] | 34.6

Molecular target: HLA-B*08:01 (recombinant MHC class I molecule) (human)
Experiment: as above
Details: remark: other sources report otherwise

Row | Binder | In Vitro Score (% of positive control peptide)
36 | VAFIIFWVR [… synthetic peptide K28R (SEQ ID NO: 100)] | 0.1

Molecular target: HLA-A*02:01 (recombinant MHC class I molecule) (human)
Experiment: REVEAL MHC-peptide binding assay, recombinant MHC, score normalised to positive control = 100
Details: remark: other sources report otherwise

Row | Binder | In Vitro Score (% of positive control peptide)
37 | VAFIIFWVR [Synthetic peptide … (K28R)] | 1.2

Molecular target: HLA-A*03:01 (recombinant MHC class I molecule) (human)
Experiment: as above
Details: remark: other sources report otherwise

Row | Binder | In Vitro Score (% of positive control peptide)
38 | VAFIIFWVR [Synthetic peptide … (K28R)] | 0.7
